# Data: US20250108137A1, “APTAMERS SPECIFIC TO EBV-ASSOCIATED MALIGNANCIES AND THEIR APPLICATIONS IN CANCER IMAGING AND THERAPIES” (priority 2022, published 2025)
# T1: MTDH (Homo sapiens, UniProt Q86UE4)
# T1 construct: endogenous in cells; host or cells: EBV-positive NPC43 cells
# T1 sequence (Q86UE4 1-582): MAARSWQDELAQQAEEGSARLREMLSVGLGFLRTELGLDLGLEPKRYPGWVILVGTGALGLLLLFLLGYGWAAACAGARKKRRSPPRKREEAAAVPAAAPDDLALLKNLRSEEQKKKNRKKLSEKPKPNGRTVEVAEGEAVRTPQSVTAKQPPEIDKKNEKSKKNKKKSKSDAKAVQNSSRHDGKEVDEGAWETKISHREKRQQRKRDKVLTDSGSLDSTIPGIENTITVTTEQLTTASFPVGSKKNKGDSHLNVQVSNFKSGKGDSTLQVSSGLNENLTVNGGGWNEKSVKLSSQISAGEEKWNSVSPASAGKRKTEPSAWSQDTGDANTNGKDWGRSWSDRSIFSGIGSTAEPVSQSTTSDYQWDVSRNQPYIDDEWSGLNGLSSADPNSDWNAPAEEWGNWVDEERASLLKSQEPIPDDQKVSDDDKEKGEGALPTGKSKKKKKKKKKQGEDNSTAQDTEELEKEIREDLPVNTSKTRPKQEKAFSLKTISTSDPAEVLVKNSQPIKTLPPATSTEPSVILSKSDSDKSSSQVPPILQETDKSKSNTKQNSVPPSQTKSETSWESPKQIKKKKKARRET
# Columns and labels:
# CNBP-knockout cells = assay: Aptamer binding to CNBP-knockout vs parental NPC cells
# Description: (§1) 10 μM aptamers or aptamer pools were dissolved in DBPS with 5 mM MgCl2 as stock and diluted with binding buffer (DBPS with 5 mM MgCl2, 0.1% BSA, […] and 0.45% glucose) into 200 nM, followed by heating at 95° C. to 5 mins and chilling on ice for 5 mins. Cells were trypsinized and incubated in the aptamer solution at 4° C. for 30-60 mins. After incubation, the cells were washed once by precooled binding buffer. At last, the samples were analyzed on BD flowcytometry. For flow cytometric analysis of bead assay, the NTA beads were incubated with CNBP-his or MTDH-his containing cell lysates or control lysates for 1 hr at 4° C. and then washed with binding buffer for 3 times. After that, the beads were incubated with FAM-Apt-2019 or FAM-Apt-1194 (200 nM) for 30 mins at 4° C. At last, the bead-aptamer complexes were washed 3 times with binding buffer and analyzed by BD flow cytometer.
# (§2) To identify the target surface protein which was bound by the Apt-2019 on LMP1-expressing cells, we have performed pull-down assay using Apt-2019. […] The proteins from this band were purified from the gel and subjected for protein identification by tandem mass spectrometry (MS/MS). […] To validate CNBP as the target of Apt-2019, the pull-down proteins from Apt-2019 and Apt-library in LMP1-cell lysates were blotted by the antibody against CNBP (FIG. 2A). […]
# [1] = tested on: LMP1-expressing NPC43 cells; assay: Internalization by Z-stack confocal microscopy; type: cell-based; details: live cells, 45 mins
# Source text: (§3) FIGS. 5A-5G. Characterization of Apt-2019 and Apt-1194. (FIG. 5A) Diagram showing the G-quadraplex structure that can be formed by G-rich aptamers. (FIGS. 5B-5C) Fluorescent enhancement assay (FEA) was used to detect G-quadraplex forming sequences. Both Apt-2019 and Apt-1194 could form into G-quadraplex in the presence of K+ or L+ ions and then light up the ThT ligands. […] (FIGS. 5E-5F) A serial concentrations of FITC-tagged Apt-2019 and Apt-1194 were bound with LMP1-overexpressing NPC43 and EBV-positive C666-1 respectively. Equilibrium dissociation constant (Kd) was then calculated. (FIG. 5G) Apt-2019 was allowed to bind with live NPC cells for 45 mins. Internalization of Apt-2019 was validated by Z-stack imaging of confocal microscope.
# In live cell imaging, the NPC43-LMP1+ and NPC43-LMP1− cells were seeded in 3.5 cm confocal dishes 24 hrs before. The cells were washed with PBS 2 times and then incubated with 200 nM aptamers in binding buffer for 30 mins and washed with DPBS twice after. The Zeiss LSM880 was used for taking confocal images. In immunofluorescence and aptamer co-staining, the cells were fixed by 4% PFA for 15 mins and then blocked with 3% BSA for 1 hr. CNBP antibody was incubated with the cells in 1:100 dilution (Abclonal, 15110) for 1 hr followed with anti-Rabbit Alex-555 antibody (1:500) for 1 h. After washing for 3 times, FAM-Apt-2019 was added and incubated for 1 h.
# NPC43^noEBV-LMP1 cells = assay: Flow cytometry and confocal binding to LMP1-expressing cells vs vector control; details: among 8 selected aptamers; flow cytometric analysis and confocal microscopy; FAM-tagged
# Description: as §1, with “cytometer. […]” for “cytometer.”
# (§4) Identification of Apt-2019 which preferentially binds to LMP1-expressing cells. […] Flow cytometric analyses have shown the gradual increase of fluorescence signals on NPC43^noEBV-LMP1 cells bound with the FAM-tagged aptamers enriched from round 9, 11 and 12 Cell-SELEX (FIG. 1A), indicating a successful enrichment process. […] 8 sequences were selected out based on the sequence similarity and abundance of sequence reads. […]
# [2] = tested on: C15 tumors (an NPC xenograft with high expression of LMP1); assay: In vivo fluorescence imaging of biodistribution, C15 xenograft; set-up: species or system mice; details: fluorescence-tagged, tail vein injected, IVIS Spectrum imager
# Source text: Fluorescence-tagged Apt-2019 and Apt-1194 were tail vein injected in mice bearing C15 tumors (an NPC xenograft with high expression of LMP1 (18)) and EBV-positive C666-1 tumors respectively. We have also generated control aptamers to Apt-2019 and Apt-1194 by replacing all the G to C, so as to destroy the G4-forming ability. The resulting control aptamers are named as Apt-NG^2019 (SEQ ID NO: 4; Apt-NG^2019 (14-63) Aptamer: […]) and Apt-NG^1194 (SEQ ID NO:5; Apt-NG^1194 (1-58) Aptamer: […] GGCC). Tumors and organs (e.g., lungs and spleen) were taken out for fluorescence imaging (IVIS Spectrum imager).
# [3] = tested on: LMP1-overexpressing NPC43; assay: Equilibrium dissociation constant on cells, FITC-tagged Apt-2019; type: binding; details: serial concentrations of FITC-tagged aptamer
# Source text: as §3
# as §1, with “For flow cytometric analysis of bead assay, the NTA beads were incubated with CNBP-his or MTDH-his containing cell lysates or control lysates for 1 hr at 4° C. and then washed with binding buffer for 3 times. After that, the beads were incubated with FAM-Apt-2019 or FAM-Apt-1194 (200 nM) for 30 mins at 4° C.” left out
# CNBP [4] = target: T2, CNBP (Homo sapiens, UniProt P62633); assay: Flow analysis of CNBP-tagged and non-tagged beads with Apt-2019-FAM; type: binding; details: Apt-2019-FAM 200 nM; CNBP-tagged vs non-tagged beads
# T2 construct: endogenous in cells; host or cells: LMP1-expressing NPC43(noEBV) cell lysate
# Description: as §1, §2
# [5] = Thioflavin T fluorescent enhancement assay for G-quadruplex formation; type: physicochemical; details: lithium cacodylate buffer or potassium phosphate buffer
# Source text: Thioflavin T (ThT) is kind of G4 ligand dye, and its fluorescent signal would increase after binding to G4 structures. So, it is widely used in detecting G4 structure. The Apt-2019 was stained by ThT with the existence of Lit or Kt. Circular dichroism (CD) spectra was used for determination of the subtype of G4 structure.
# Both Apt-2019 and Apt-1194 are guanine-rich oligonucleotides (GROs) in which the G content are 43 and 41% respectively. GROs can form stable G-quadruplex structures because four guanine bases form a square planar structure called a G-quartet through Hoogsteen base pairing, and these G-quartets spontaneously assemble into four-stranded helical structures termed G-quadruplex (G4) (FIG. 5A) (20). It is well known that G4-forming oligonucleotides are relatively stable against nuclease degradation (21). Therefore, we checked if Apt-2019 and Apt-1194 can form G4 using Thioflavin T (ThT) as a fluorescence light-up probe for G4 formation (22). […] The higher serum stability of Apt-2019 and Apt-1194 than random non-GC rich aptamers (FIG. 5D) can thus be explained by their stable G4 structure. To further characterize these novel NPC-targeting aptamers, we have measured their equilibrium dissociation constant (Kd).
# CNBP [6] = target: T2, CNBP; assay: Pull-down assay with mass spectrometry and western blot (LMP1-cell lysates); type: binding; details: band around 20 kd vs Apt-library; MS/MS; blotted with CNBP antibody
# Description: (§5) The pulldown assay was performed by following the protocol from Shang Guan's lab. Then the protein samples were separated in PAGE gels and stained by pierce silver staining kit from Life Technology. The specific bands around 20 kDa or 70 kDa were sent to Biotech Company (Bei Jing) for mass spectrometry analysis.
# To identify the target surface protein which was bound by the Apt-2019 on LMP1-expressing cells, we have performed pull-down assay using Apt-2019. […] The proteins from this band were purified from the gel and subjected for protein identification by tandem mass spectrometry (MS/MS). […] To validate CNBP as the target of Apt-2019, the pull-down proteins from Apt-2019 and Apt-library in LMP1-cell lysates were blotted by the antibody against CNBP (FIG. 2A). The docking model between the Apt-2019 and CNBP was also predicted by HDOCK (sec worldwide website: hdock.phys.hust.edu.cn/) (FIG. 2A). Another validation assay was done by flow analysis of CNBP-tagged and non-tagged beads after binding with Apt-2019-FAM (FIG. 2B). […] Moreover, Apt-2019-bounded CNBP was specifically expressed on the cell surface, as both the fluorescent signals of CNBP and Apt-2019 were localized on the ‘non-permeabilized’ NPC43-LMP1 cells. (FIG. 3A). […] All these confirmed Apt-2019 could bind to the cell surface CNBP on NPC cells. […]
# [7] = compared with random aptamer sequences
# [8] = tested on: LMP1-transfected cell lines including HONE1, C17 and NP460; assay: Binding to other LMP1-transfected cell lines vs vector control; details: compared to the vector control cells
# Description: as §1, §4
# [9] = tested on: EBV-positive NPC cell lines (NPC43, C666-1 and C17); assay: Binding to a panel of EBV-positive and EBV-negative cell lines; details: EBV-positive NPC43, C666-1, C17; EBV-negative A549, NP460
# Description: as §1
# (§6) By binding of Apt-1194 & Apt-1798 with a panel of EBV-positive NPC cell lines (NPC43, C666-1 and C17), EBV-negative lung cancer cell line (A549) and nasopharyngcal cell line (NP460), the specificity of Apt-1194 to EBV-positive cells was confirmed (FIG. 4B). Proteins from NPC43 lysate were pulled down by Apt-1194. […] It has been reported that MTDH is a prognosis marker for NPC (19). […] Knockdown of MTDH could suppress proliferation and migration capability in NPC cells (FIG. 4F)
# MTDH = target: T1, MTDH; assay: Pull-down from NPC43 lysate with mass spectrometry and western blot; type: binding; details: mass spectrometry, validated by Western blot
# Description: as §5, §6
# EBV-positive C666-1 = assay: Equilibrium dissociation constant on cells, FITC-tagged Apt-1194; type: binding; details: serial concentrations of FITC-tagged aptamer
# Source text: as §3
# as §1, with “For flow cytometric analysis of bead assay, the NTA beads were incubated with CNBP-his or MTDH-his containing cell lysates or control lysates for 1 hr at 4° C. and then washed with binding buffer for 3 times. After that, the beads were incubated with FAM-Apt-2019 or FAM-Apt-1194 (200 nM) for 30 mins at 4° C.” left out
# [10] = tested on: EBV-positive C666-1 tumors; assay: In vivo fluorescence imaging of biodistribution, C666-1 tumors; set-up: species or system mice; details: fluorescence-tagged, tail vein injected, IVIS Spectrum imager
# Source text: Fluorescence-tagged Apt-2019 and Apt-1194 were tail vein injected in mice bearing C15 tumors (an NPC xenograft with high expression of LMP1 (18)) and EBV-positive C666-1 tumors respectively. […] Tumors and organs (e.g., lungs and spleen) were taken out for fluorescence imaging (IVIS Spectrum imager).
# T2 sequence (P62633 whole entry): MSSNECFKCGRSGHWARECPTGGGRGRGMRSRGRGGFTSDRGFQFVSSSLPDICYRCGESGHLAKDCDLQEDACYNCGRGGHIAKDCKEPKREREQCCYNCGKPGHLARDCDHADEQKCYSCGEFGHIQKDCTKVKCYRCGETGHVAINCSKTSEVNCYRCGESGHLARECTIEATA
molecule,measurement,setting,value
"Apt-2019: DNA aptamer, SEQ ID NO: 1, from Cell-SELEX on LMP1-expressing NPC43 cells; binds CNBP (nucleic acid, DNA, backbone and methylation of C not given here; further chemistry not fully specified) DNA: ATCCAGAGTGACGCAGCAGAATGGGTGGGATTCCTCAGAGGGGTTGGTGAGTTTGTGATGGACACGGTGGCTTAGT",binding after CRISPR-knockout of CNBP,CNBP-knockout cells,inhibited the binding
same,internalization into cells,[1],could be internalized
same,preferential binding to LMP1-expressing cells,NPC43^noEBV-LMP1 cells,highest preferential binding to LMP1-expressing cells
same,accumulation in the tumors,[2],accumulation
same,equilibrium dissociation constant (Kd),[3],nanomolar range
same,binding to CNBP-tagged beads,CNBP [4],could specifically bind to the CNBP-tagged beads
same,"G-quadruplex (G4) formation, ThT light-up",[5],could fold into G4
same,target identified by pull-down,CNBP [6],CNBP was found to be the potential target
same,serum stability,[7],much higher serum stability than random aptamer sequences
same,specific binding ability in LMP1-transfected cell lines,[8],could preferentially bind to all these LMP1-overexpressing cells
"Apt-1194: DNA aptamer, SEQ ID NO: 2, from Cell-SELEX and in vivo-SELEX on EBV-positive NPC43; binds MTDH (nucleic acid, DNA, backbone and methylation of C not given here; further chemistry not fully specified) DNA: ATCCAGAGTGACGCAGCACCGAGCGAGTTGGTTTGCTGCGGTGGGCAGAGAGGTGGGGTGGACACGGTGGCTTAGT",specific binding to EBV-positive vs EBV-negative cell lines,[9],could bind specifically to EBV-positive cell lines but not to EBV-negative cell lines
same,target identified by pull-down,MTDH,MTDH was found to be the target
same,equilibrium dissociation constant (Kd),EBV-positive C666-1,nanomolar range
same,"G-quadruplex (G4) formation, ThT light-up",[5],could fold into G4
same,serum stability,[7],much higher serum stability than random aptamer sequences
same,accumulation in the tumors,[10],accumulation
"Apt-1798: DNA aptamer, SEQ ID NO: 3, top enriched sequence targeting EBV-positive cells (nucleic acid, DNA, backbone and methylation of C not given here) DNA: ATCCAGAGTGACGCAGCAATCGTGGACCTGGCTGTGGTTTGCTGAGGTGGGCGCCAATTGGACACGGTGGCTTAGT",specific binding to EBV-positive vs EBV-negative cell lines,[9],could bind specifically to EBV-positive cell lines but not to EBV-negative cell lines
